Measured values: patent US20260265385A1 (ANAPTYSBIO, published 2026)
Substitutions are numbered along the chain they refer to.

T1: recombinant human IL-2Rβ (extracellular domain, Ala1-Thr215) (human, UniProt P14784 27-240)
T1 construct: extracellular domain; Analyte in SPR; Ala1-Thr215 is counted on the mature protein; also called human LL-2Rβ; Human IL-2RB
T1 sequence (looked up): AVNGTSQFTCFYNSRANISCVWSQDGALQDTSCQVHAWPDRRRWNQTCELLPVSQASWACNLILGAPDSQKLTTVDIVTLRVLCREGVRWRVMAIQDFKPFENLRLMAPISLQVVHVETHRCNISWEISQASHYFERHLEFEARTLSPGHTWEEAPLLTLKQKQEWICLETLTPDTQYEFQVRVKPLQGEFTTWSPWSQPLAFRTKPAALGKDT

T2: recombinant cynomolgus IL-2Rβ (extracellular domain, Ala1-Thr215) (cynomolgus, UniProt Q38J85 27-240)
T2 construct: extracellular domain; Analyte in SPR; also called cynomolgus LL-2Rβ; Cyno IL-2RB
T2 sequence (looked up): T1 sequence (looked up) with Q7R, A66T, T74A, L83M, V92M, E127K, L158M

B1: APE14946 (antibody, V domains shown)
VH: QVQLVQSGAEVKKPGASVKVSCKASGYTFSRYWIEWVRQAPGQGLEWMGEILPGSGSINHNEKFQGRVTFTADTSTSTVYMELSSLRSEDTAVYFCTRHYGSFDYWGQGTTVTVSS
VL: DIQMTQSPSSLSASVGDRVTITCKASQNVGTDVAWYQQKPGKAPKSLIYSASYRYSGVPSRFSGSGSGTDFTLTISSLQPEDFATYFCHQYSSYPFTFGQGTKLEIKR
notes: M6-p1625 series
B2: APE14948 (antibody, V domains shown)
VH: B1 VH with F95Y
VL: B1 VL
notes: M6-p1625 series
B3: APE15087 (antibody, V domains shown)
VH: B1 VH with F70M, A72R, F95Y
VL: B1 VL with D32E
notes: M6-p1625 series
B4: APE14947 (antibody, V domains shown)
VH: B1 VH
VL: B1 VL with Y36F, S56N, F87Y
notes: M6-p1625 series
B5: APE15088 (antibody, V domains shown)
VH: B1 VH with F70M, A72R, F95Y
VL: B1 VL with D32N
notes: M6-p1625 series
B6: APE15086 (antibody, V domains shown)
VH: B1 VH with F70M, A72R, F95Y
VL: B1 VL with H89Q
notes: M6-p1625 series
B7: APE15277 (antibody, V domains shown)
VH: B1 VH with S30I, R31S, E35Q, F70M, A72R, F95Y
VL: B1 VL with S92E
notes: M6-p1625 series
B8: APE14951 (antibody, V domains shown)
VH: B1 VH with F70M, A72R, F95Y
VL: B1 VL with Y36F, S56N, F87Y
notes: M6-p1625 series
B9: APE14949 (antibody, V domains shown)
VH: B1 VH with F95Y
VL: B1 VL with Y36F, S56N, F87Y
notes: M6-p1625 series
B10: APE15089 (antibody, V domains shown)
VH: B1 VH with F70M, A72R, F95Y
VL: B1 VL with G30D
notes: M6-p1625 series
B11: APE15090 (antibody, V domains shown)
VH: B1 VH with N59D, F70M, A72R, F95Y
VL: B1 VL
notes: M6-p1625 series
B12: APE15085 (antibody, V domains shown)
VH: B1 VH with F70M, A72R, F95Y
VL: B1 VL with S92E
notes: M6-p1625 series
B13: APE15278 (antibody, V domains shown)
VH: B1 VH with L52S, S55V, G56D, S57T, F70M, A72R, F95Y
VL: B1 VL with S92E
notes: M6-p1625 series
B14: APE14950 (antibody, V domains shown)
VH: B1 VH with F70M, A72R, F95Y
VL: B1 VL
notes: M6-p1625 series
B15: APE15093 (antibody, V domains shown)
VH: B1 VH with S30T, F70M, A72R, F95Y
VL: B1 VL
notes: M6-p1625 series
B16: APE15091 (antibody, V domains shown)
VH: B1 VH with E35N, F70M, A72R, F95Y
VL: B1 VL
notes: M6-p1625 series
B17: APE15092 (antibody, V domains shown)
VH: B1 VH with E35Q, F70M, A72R, F95Y
VL: B1 VL
notes: M6-p1625 series

target: T1, recombinant human IL-2Rβ (extracellular …); assay: SPR, antibody captured on Protein A chip
Method: (§1) Surface plasmon resonance (SPR) was used to determine the binding affinities. The M6-1625 and M10-1275 antibodies were captured onto a Cytiva Protein A Chip for 60 seconds at 0.5 μg/mL for 60 seconds. The antibodies were exposed to recombinant human LL-2Rβ or cynomolgus LL-2Rβ (corresponding to residues Ala1-Thr215 of the extracellular domains excluding the signal peptide) at typical concentrations ranging from 0.4 nM to 11 nM with typical 300 second associations and 1200 second dissociations using a BiacoreS200 instrument. Sensorgrams were fit globally using a 1:1 binding model in the Biacore T200 Evaluation Software to calculate on- and off-rates and KD values.

Kd | Binder
0.357 nM | B1
0.358 nM | B2
4.31 nM | B3
1.46 nM | B4
16.4 nM | B5
0.305 nM | B6
0.229 nM | B7
0.804 nM | B8
1.5 nM | B9
1.04 nM | B10
0.657 nM | B11
0.158 nM | B12
0.334 nM | B13
0.252 nM | B14

target: T2, recombinant cynomolgus IL-2Rβ …; assay: SPR, antibody captured on Protein A chip
Method: as §1

Kd | Binder
0.255 nM | B1
0.266 nM | B2
3.56 nM | B3
0.189 nM | B15
0.977 nM | B4
16.7 nM | B5
0.25 nM | B6
0.345 nM | B16
0.244 nM | B7
0.584 nM | B8
1 nM | B9
9.39 nM | B10
0.44 nM | B11
0.154 nM | B12
0.126 nM | B17
0.488 nM | B13
0.192 nM | B14
